Target: Canine IL-31RA ECD-10His (canine)
Assay: ELISA, IL-31RA coated at 1 ug/mL, biotinylated IL-31 titrated, HRP-streptavidin

Chain of Canine IL-31RA ECD-10His (canine) (chain, as listed by the source limits assumed): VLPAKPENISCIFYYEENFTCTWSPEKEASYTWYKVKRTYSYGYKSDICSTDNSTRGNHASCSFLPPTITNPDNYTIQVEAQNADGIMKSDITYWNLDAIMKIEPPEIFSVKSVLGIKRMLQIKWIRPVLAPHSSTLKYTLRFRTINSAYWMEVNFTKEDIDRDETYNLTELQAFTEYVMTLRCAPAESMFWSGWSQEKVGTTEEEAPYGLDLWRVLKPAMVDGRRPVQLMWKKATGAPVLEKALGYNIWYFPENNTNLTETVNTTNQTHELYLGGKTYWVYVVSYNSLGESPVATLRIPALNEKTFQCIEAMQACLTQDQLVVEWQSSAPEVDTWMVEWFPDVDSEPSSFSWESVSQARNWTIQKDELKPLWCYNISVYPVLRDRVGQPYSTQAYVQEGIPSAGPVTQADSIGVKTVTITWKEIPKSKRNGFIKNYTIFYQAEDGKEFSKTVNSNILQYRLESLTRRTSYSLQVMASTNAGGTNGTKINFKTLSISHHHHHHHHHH

Q: With biotinylated canine IL-31 (ligand) as the substance, how does the EC50 read?
A: Its EC50 is 0.55 ng/mL.

From patent US20250340654A1
